According to paper PMC3260422 (Structure(London, England:1993), 2011):

Biological target: T1, human Colony Stimulating Factor-1 (hCSF-1), residues 1-149 (human)
T1 sequence (P09603 whole entry, looked up): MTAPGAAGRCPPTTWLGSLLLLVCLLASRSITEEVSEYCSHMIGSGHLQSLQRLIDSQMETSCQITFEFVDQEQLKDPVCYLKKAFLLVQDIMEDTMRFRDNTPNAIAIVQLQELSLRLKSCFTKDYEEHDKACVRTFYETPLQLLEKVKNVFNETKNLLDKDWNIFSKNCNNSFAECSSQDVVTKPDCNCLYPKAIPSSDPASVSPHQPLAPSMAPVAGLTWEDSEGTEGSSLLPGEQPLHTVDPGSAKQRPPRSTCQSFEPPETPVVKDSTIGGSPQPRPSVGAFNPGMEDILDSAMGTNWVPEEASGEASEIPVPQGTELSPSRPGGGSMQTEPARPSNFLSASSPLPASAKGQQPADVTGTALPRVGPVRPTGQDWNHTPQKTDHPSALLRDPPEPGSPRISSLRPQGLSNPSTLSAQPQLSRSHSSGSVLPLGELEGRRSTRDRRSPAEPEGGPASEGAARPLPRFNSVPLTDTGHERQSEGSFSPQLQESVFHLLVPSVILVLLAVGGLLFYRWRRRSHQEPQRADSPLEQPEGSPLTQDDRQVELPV
Assay: ITC

Kd: 213 nM
B1: human CSF-1 receptor, first three extracellular domains (hCSF-1R_(D1-D3)) (domain or fragment)
chain: IPVIEPSVPELVVKPGATVTLRCVGNGSVEWDGPPSPHWTLYSDGSSSILSTNNATFQNTGTYRCTEPGDPLGGSAAIHLYVKDPARPWNVLAQEVVVFEDQDALLPCLLTDPVLEAGVSLVRVRGRPLMRHTNYSFSPWHGFTIHRAKFIQSQDYQCSALMGGRKVMSISIRLKVQKVIPGPPALTLVPAELVRIRGEAAQIVCSASSVDVNFDVFLQHNNTKLAIPQQSDFHNNRYQKVLTLNLDQVDFQHAGNYSCVASNVQGKHSTSMFFRVVES
modifications: N-linked glycosylation (produced with kifunensine)
